The record followed here is paper PMC6085368, “Structure of the essential peptidoglycan amidotransferase MurT/GatD complex from Streptococcus pneumoniae” (Nature Communications, 2018).

Data set [1] deals with T1, MurT/GatD (Streptococcus pneumoniae, UniProt Q8DNZ8+Q8DNZ9).
T1 construct: co-expressed in E. coli BL21 Star (DE3) from modified pET-30; MurT with N-terminal poly-His tag (cleavage not mentioned), GatD untagged; MurT/GatD heterodimer (four complexes in the asymmetric unit); MurT residues 1-42 present but not visible
T1 sequence (Q8DNZ9 1-447): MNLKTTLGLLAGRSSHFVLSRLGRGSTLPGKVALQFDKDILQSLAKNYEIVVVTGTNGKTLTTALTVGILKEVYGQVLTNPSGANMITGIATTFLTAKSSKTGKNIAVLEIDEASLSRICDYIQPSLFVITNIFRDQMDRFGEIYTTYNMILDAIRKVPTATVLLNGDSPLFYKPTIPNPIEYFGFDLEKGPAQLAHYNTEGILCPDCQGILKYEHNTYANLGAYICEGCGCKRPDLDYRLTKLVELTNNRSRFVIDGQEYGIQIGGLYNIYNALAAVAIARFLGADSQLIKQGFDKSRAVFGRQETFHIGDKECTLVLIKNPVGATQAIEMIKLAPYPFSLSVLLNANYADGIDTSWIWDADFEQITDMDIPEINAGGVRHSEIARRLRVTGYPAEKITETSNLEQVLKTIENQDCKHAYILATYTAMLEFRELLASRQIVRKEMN
T1 sequence (Q8DNZ8 1-260): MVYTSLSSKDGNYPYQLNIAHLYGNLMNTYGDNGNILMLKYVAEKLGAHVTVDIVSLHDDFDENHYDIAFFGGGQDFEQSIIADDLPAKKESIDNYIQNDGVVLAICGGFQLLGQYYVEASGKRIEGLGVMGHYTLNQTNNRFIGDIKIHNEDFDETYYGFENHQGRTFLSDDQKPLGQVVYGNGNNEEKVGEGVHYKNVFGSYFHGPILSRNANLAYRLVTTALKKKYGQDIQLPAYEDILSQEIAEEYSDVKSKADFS
Kind of data set: coupled ATPase assay (pyruvate kinase / lactate dehydrogenase, NADH at […] nm), initial velocities. The note with it: 2 mM ATP, 10 mM L-Gln, 10 mM MgCl2, 150 mM NaCl, 50 mM HEPES, 2 mM TCEP, 1% DDM, pH 7.5, 30 °C; MurT active site; read-out: Initial velocities method / Apparent KM. Format: biochemical.

Data set [2] concerns the target T1, MurT/GatD. Kind of data set: X-ray crystal structure, […] Å. The format is binding. Particulars: tentative assignment to residual density near GatD Cys107; no glutamine added, presumably carried over from E. coli.
Data set [3] addresses MurT variants with substituted conserved residues ("in most cases"). Nature of the data set: co-purification (metal-affinity chromatography of His-tagged MurT, SEC; SDS-PAGE with Coomassie stain, ratio of bands); His-tagged MurT (wild type or variant) co-expressed with untagged GatD in E. coli; lysate loaded on HisTrap FF in 50 mM HEPES pH 7.5, 300 mM NaCl, 10 mM MgCl2, 25 mM imidazole, 2 mM TCEP; then SEC.

Substrate in data set [4]: NC(=O)CC[C@H](N)C(=O)O
Nature of the data set: purified protein. Format: biochemical, Streptococcus pneumoniae. The note with it: 2 mM ATP, 10 μM lipid II (below its apparent KM), 10 mM MgCl2, 150 mM NaCl, 50 mM HEPES, 2 mM TCEP, 1% DDM, pH 7.5, 30 °C, GatD glutaminase site.

Substrate in data set [5]: Nc1ncnc2c1ncn2[C@@H]1O[C@H](COP(=O)(O)OP(=O)(O)OP(=O)(O)O)[C@@H](O)[C@H]1O
Nature of the data set: purified protein. The format is biochemical, Streptococcus pneumoniae. The note with it: 10 mM L-Gln, 10 μM lipid II (below its apparent KM), 10 mM MgCl2, 150 mM NaCl, 50 mM HEPES, 2 mM TCEP, 1% DDM, pH 7.5, 30 °C, MurT active site.

Data set [6] addresses T2, MurT from Streptococcus pneumoniae, wild type, with N-terminal poly-histidine tag (Streptococcus pneumoniae, UniProt Q8DNZ9 1-447).
T2 construct: MurT, subunit of the lipid II amidotransferase MurT/GatD, Streptococcus pneumoniae; N-terminal region 1-42 present by mass spectrometry though not visible in the crystal; central domain 43-302, C-terminal domain 303-439; also called MT; source: E. coli BL21 Star (DE3), co-expressed with GatD from a modified pET-30 plasmid; purified (HisTrap, Q Sepharose, SEC; anion exchange omitted for activity …)
T2 sequence: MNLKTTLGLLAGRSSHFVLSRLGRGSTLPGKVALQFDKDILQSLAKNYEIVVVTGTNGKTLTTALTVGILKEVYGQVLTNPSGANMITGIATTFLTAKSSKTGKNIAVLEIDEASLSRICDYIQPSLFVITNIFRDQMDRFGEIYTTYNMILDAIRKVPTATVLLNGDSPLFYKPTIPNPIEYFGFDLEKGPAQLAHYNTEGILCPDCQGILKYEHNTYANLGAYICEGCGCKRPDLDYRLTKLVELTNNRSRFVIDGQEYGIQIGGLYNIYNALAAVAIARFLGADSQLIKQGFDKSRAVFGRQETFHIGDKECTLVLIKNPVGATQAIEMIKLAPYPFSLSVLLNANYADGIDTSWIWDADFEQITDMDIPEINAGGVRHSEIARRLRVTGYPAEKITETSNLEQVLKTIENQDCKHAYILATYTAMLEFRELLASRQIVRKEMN
Kind of data set: co-purification (metal-affinity chromatography of His-tagged MurT, SEC; SDS-PAGE with Coomassie stain, ratio of bands); His-tagged MurT (wild type or variant) co-expressed with untagged GatD in E. coli; lysate loaded on HisTrap FF in 50 mM HEPES pH 7.5, 300 mM NaCl, 10 mM MgCl2, 25 mM imidazole, 2 mM TCEP; then SEC. The note with it: partners not purified.

The target of data set [7] is T3, MurT 4C4S variant (the four cysteines of the cysteine tetrad replaced by serines), with N-terminal … (Streptococcus pneumoniae, UniProt Q8DNZ9 1-447, 4C4S (Cys205 to Ser) | 4C4S (Cys208 to Ser) | 4C4S (Cys227 to Ser) | 4C4S …).
T3 construct: MurT, Streptococcus pneumoniae, with cysteines 205, 208, 227 and 230 replaced by serines; PDB 6FQB holds the wild-type parent; also called MT4C4S; 4C4S MurT/GatD; source: E. coli BL21 Star (DE3), co-expressed with GatD; purified (HisTrap, SEC); not shown: poly-histidine, N-terminal, kept
T3 sequence: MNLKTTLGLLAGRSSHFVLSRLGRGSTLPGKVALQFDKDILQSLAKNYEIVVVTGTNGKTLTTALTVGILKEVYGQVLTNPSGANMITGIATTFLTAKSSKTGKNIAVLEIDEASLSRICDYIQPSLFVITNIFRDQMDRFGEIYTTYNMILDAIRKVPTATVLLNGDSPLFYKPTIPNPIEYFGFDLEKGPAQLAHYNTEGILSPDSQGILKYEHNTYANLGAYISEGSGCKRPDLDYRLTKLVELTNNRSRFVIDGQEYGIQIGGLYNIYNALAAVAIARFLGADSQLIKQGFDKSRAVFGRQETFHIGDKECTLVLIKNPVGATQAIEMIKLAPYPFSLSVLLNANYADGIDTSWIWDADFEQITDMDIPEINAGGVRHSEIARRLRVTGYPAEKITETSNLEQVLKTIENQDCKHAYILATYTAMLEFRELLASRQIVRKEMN
The description is as above. The note with it: partners not purified.

Regarding lipid II, the Km at MurT/GatD [1] stood at 220 ± 60 µM.
Take `NC(=O)CC[C@H](N)C(=O)O` [L-Gln]: the “X-ray crystal structure, 3.0 Å” value at MurT/GatD [2] was “glutamine was thus tentatively placed in the residual density observed in GatD active site”.
On to “GatD from Streptococcus pneumoniae, wild type, without tag (from UniProt Q8DNZ8 1-260) (enzyme)”, for which the ratio of MurT/GatD bands in data set [3] worked out at 1.78.

B1: MurT/GatD (Streptococcus pneumoniae R6) (protein)
chain 1: MNLKTTLGLLAGRSSHFVLSRLGRGSTLPGKVALQFDKDILQSLAKNYEIVVVTGTNGKTLTTALTVGILKEVYGQVLTNPSGANMITGIATTFLTAKSSKTGKNIAVLEIDEASLSRICDYIQPSLFVITNIFRDQMDRFGEIYTTYNMILDAIRKVPTATVLLNGDSPLFYKPTIPNPIEYFGFDLEKGPAQLAHYNTEGILCPDCQGILKYEHNTYANLGAYICEGCGCKRPDLDYRLTKLVELTNNRSRFVIDGQEYGIQIGGLYNIYNALAAVAIARFLGADSQLIKQGFDKSRAVFGRQETFHIGDKECTLVLIKNPVGATQAIEMIKLAPYPFSLSVLLNANYADGIDTSWIWDADFEQITDMDIPEINAGGVRHSEIARRLRVTGYPAEKITETSNLEQVLKTIENQDCKHAYILATYTAMLEFRELLASRQIVRKEMN
chain 2: MVYTSLSSKDGNYPYQLNIAHLYGNLMNTYGDNGNILMLKYVAEKLGAHVTVDIVSLHDDFDENHYDIAFFGGGQDFEQSIIADDLPAKKESIDNYIQNDGVVLAICGGFQLLGQYYVEASGKRIEGLGVMGHYTLNQTNNRFIGDIKIHNEDFDETYYGFENHQGRTFLSDDQKPLGQVVYGNGNNEEKVGEGVHYKNVFGSYFHGPILSRNANLAYRLVTTALKKKYGQDIQLPAYEDILSQEIAEEYSDVKSKADFS
notes: co-expressed in E. coli BL21 Star (DE3) from modified pET-30; MurT with N-terminal poly-His tag (cleavage not mentioned), GatD untagged; MurT/GatD heterodimer (four complexes in the asymmetric unit); MurT residues 1-42 present but not visible
Regarding B1, the Km in the data set “purified protein [4]” was 78 ± 8 µM; in the data set “purified protein [5]”, 16 ± 2 µM.

B2: GatD from Streptococcus pneumoniae, wild type, without tag (enzyme)
chain: MVYTSLSSKDGNYPYQLNIAHLYGNLMNTYGDNGNILMLKYVAEKLGAHVTVDIVSLHDDFDENHYDIAFFGGGQDFEQSIIADDLPAKKESIDNYIQNDGVVLAICGGFQLLGQYYVEASGKRIEGLGVMGHYTLNQTNNRFIGDIKIHNEDFDETYYGFENHQGRTFLSDDQKPLGQVVYGNGNNEEKVGEGVHYKNVFGSYFHGPILSRNANLAYRLVTTALKKKYGQDIQLPAYEDILSQEIAEEYSDVKSKADFS
notes: GatD, class I glutaminase subunit of the MurT/GatD amidotransferase, Streptococcus pneumoniae; also called GD; GatDSpn; source: E. coli BL21 Star (DE3), co-expressed with His-tagged MurT from a modified pET-30 plasmid; co-purified with MurT (HisTrap, Q Sepharose, SEC)
Turning to B2, the entries for the “ratio of the Coomassie-stained MurT/GatD bands after SDS-PAGE” value in data set [6] and in data set [7] were 1.78 and 1.4, respectively.
